# From patent US6180103A, “Peptide p277 analogs, and pharmaceutical compositions comprising them for treatment or diagnosis of diabetes” (Yeda Research and Development Co., Ltd., priority 1994, dated 2001)
# B1: hsp60: whole recombinant hsp60; human 60 kDa heat shock protein (protein, UniProt P10809 27-573, looked up)
# 60 kDa heat shock protein, …: AKDVKFGADARALMLQGVDLLADAVAVTMGPKGRTVIIEQSWGSPKVTKDGVTVAKSIDLKDKYKNIGAKLVQDVANNTNEEAGDGTTTATVLARSIAKEGFEKISKGANPVEIRRGVMLAVDAVIAELKKQSKPVTTPEEIAQVATISANGDKEIGNIISDAMKKVGRKGVITVKDGKTLNDELEIIEGMKFDRGYISPYFINTSKGQKCEFQDAYVLLSEKKISSIQSIVPALEIANAHRKPLVIIAEDVDGEALSTLVLNRLKVGLQVVAVKAPGFGDNRKNQLKDMAIATGGAVFGEEGLTLNLEDVQPHDLGKVGEVIVTKDDAMLLKGKGDKAQIEKRIQEIIEQLDVTTSEYEKEKLNERLAKLSDGVAVLKVGGTSDVEVNEKKDRVTDALNATRAAVEEGIVLGGGCALLRCIPALDSLTPANEDQKIGIEIIKRTLKIPAMTIAKNAGVEGSLIVEKIMQSSSEVGYDAMAGDFVNMVEKGIIDPTKVVRTALLDAAGVASLLTTAEVVVTEIPKEEKDPGMGAMGGMGGGMGGGMF
# System: T cells of IDDM patients and healthy blood-donors
# Assay: Proliferative T cell response of IDDM patients and healthy blood donors
# Type: cell-based, human
# Conditions: for Incidence of T-cell responses: positive = SI of 3 or greater
molecule,measurement,setting,value
B1,Incidence of T-cell responses,Healthy blood donors (n=14),21%
same,T-cell responses (stimulation index),"IDDM patient 1. patient eight, 3.5 months since diagnosis",+ (SI values of 3 or greater were considered to be positive)
same,T-cell responses (stimulation index),"IDDM patient 3. H, 6 months since diagnosis",+ (SI values of 3 or greater were considered to be positive)
same,T-cell responses (stimulation index),"IDDM patient 4. patient seven, 3 weeks since diagnosis",+ (SI values of 3 or greater were considered to be positive)
same,T-cell responses (stimulation index),"IDDM patient 4. patient seven, 5 weeks since diagnosis",+ (SI values of 3 or greater were considered to be positive)
same,T-cell responses (stimulation index),"IDDM patient 5. SD, 6 weeks since diagnosis",+ (SI values of 3 or greater were considered to be positive)
same,T-cell responses (stimulation index),"IDDM patient 6. P, 4 weeks since diagnosis",- (SI values of 3 or greater were considered to be positive)
same,T-cell responses (stimulation index),"IDDM patient 7. G, 5 weeks since diagnosis",+ (SI values of 3 or greater were considered to be positive)
same,T-cell responses (stimulation index),"IDDM patient 7. G, 7 weeks since diagnosis",+ (SI values of 3 or greater were considered to be positive)
same,T-cell responses (stimulation index),"IDDM patient 9. patient two, 2 weeks since diagnosis",+ (SI values of 3 or greater were considered to be positive)
same,T-cell responses (stimulation index),"IDDM patient 10. T, 4 weeks since diagnosis",+ (SI values of 3 or greater were considered to be positive)
same,T-cell responses (stimulation index),"IDDM patient 12. patient nine, 6 weeks since diagnosis",- (SI values of 3 or greater were considered to be positive)
same,T-cell responses (stimulation index),"IDDM patient 15. patient five, 3 weeks since diagnosis",- (SI values of 3 or greater were considered to be positive)
same,T-cell responses (stimulation index),"IDDM patient 16. patient one, 2 months since diagnosis",+ (SI values of 3 or greater were considered to be positive)
same,T-cell responses (stimulation index),"IDDM patient 17. patient six, 4 weeks since diagnosis",- (SI values of 3 or greater were considered to be positive)
same,T-cell responses (stimulation index),"IDDM patient 18. patient four, 4 weeks since diagnosis",+ (SI values of 3 or greater were considered to be positive)
same,T-cell responses (stimulation index),"IDDM patient 19. A, 11.5 years since diagnosis",+ (SI values of 3 or greater were considered to be positive)
same,T-cell responses (stimulation index),"IDDM patient 20. N, 7.5 years since diagnosis",+ (SI values of 3 or greater were considered to be positive)
same,T-cell responses (stimulation index),"IDDM patient 21. A, 5.7 years since diagnosis",+ (SI values of 3 or greater were considered to be positive)
same,Incidence of T-cell responses,IDDM patients (n=21),86%
same,T-cell responses (stimulation index),healthy blood donor 1,- (SI values of 3 or greater were considered to be positive)
same,T-cell responses (stimulation index),healthy blood donor 2,- (SI values of 3 or greater were considered to be positive)
same,T-cell responses (stimulation index),healthy blood donor 4,- (SI values of 3 or greater were considered to be positive)
same,T-cell responses (stimulation index),healthy blood donor 5,+ (SI values of 3 or greater were considered to be positive)
same,T-cell responses (stimulation index),healthy blood donor 6,- (SI values of 3 or greater were considered to be positive)
same,T-cell responses (stimulation index),healthy blood donor 7,- (SI values of 3 or greater were considered to be positive)
same,T-cell responses (stimulation index),healthy blood donor 8,- (SI values of 3 or greater were considered to be positive)
same,T-cell responses (stimulation index),healthy blood donor 9,- (SI values of 3 or greater were considered to be positive)
same,T-cell responses (stimulation index),healthy blood donor 10,- (SI values of 3 or greater were considered to be positive)
same,T-cell responses (stimulation index),healthy blood donor 11,+ (SI values of 3 or greater were considered to be positive)
same,T-cell responses (stimulation index),healthy blood donor 12,- (SI values of 3 or greater were considered to be positive)
same,T-cell responses (stimulation index),healthy blood donor 13,+ (SI values of 3 or greater were considered to be positive)
same,T-cell responses (stimulation index),healthy blood donor 14,- (SI values of 3 or greater were considered to be positive)
